PMC7241785

Target: T1, GST-Flag-SASPase 28 kDa recombinant protein (human) (UniProt Q53RT3)
T1 sequence: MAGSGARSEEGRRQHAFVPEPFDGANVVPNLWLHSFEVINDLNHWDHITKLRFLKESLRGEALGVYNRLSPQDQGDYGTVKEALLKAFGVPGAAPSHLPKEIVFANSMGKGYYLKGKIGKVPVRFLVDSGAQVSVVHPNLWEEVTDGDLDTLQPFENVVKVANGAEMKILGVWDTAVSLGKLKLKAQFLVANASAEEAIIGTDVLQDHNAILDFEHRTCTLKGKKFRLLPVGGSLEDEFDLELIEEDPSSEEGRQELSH

SASPase activity on Dabcyl-QIDRIMEK-Glu(Edans)-NH2 (0.1 mM), pH 5.5, 0.5 μM SASPase 28, FLG2Nter at ratios from 1.25 to 10; fold against the protease alone: 10 fold
B1: recombinant protein FLG2Nter (aa 2-213) (domain or fragment)
chain: TDLLRSVVTVIDVFYKYTKQDGECGTLSKGELKELLEKELHPVLKNPDDPDTVDVIMHMLDRDHDRRLDFTEFLLMIFKLTMACNKVLSKEYCKASGSKKHRRGHRHQEEESETEEDEEDTPGHKSGYRHSSWSEGEEHGYSSGHSRGTVKCRHGSNSRRLGRQGNLSSSGNQEGSQKRYHRSSCGHSWSGGKDRHGSSSVELRERINKSHI
